From publication PMC9482650, “Quantitative fragmentomics allow affinity mapping of interactomes” (Nature Communications, 2022)

T1: APBA2_1, Q99767
T1 sequence (Q99767 563-664, limits assumed, looked up): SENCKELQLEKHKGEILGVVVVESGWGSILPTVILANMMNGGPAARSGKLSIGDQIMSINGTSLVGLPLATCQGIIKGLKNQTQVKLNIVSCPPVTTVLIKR

T2: ARHGEF11, O15085
T2 sequence (O15085 42-136, limits assumed, looked up): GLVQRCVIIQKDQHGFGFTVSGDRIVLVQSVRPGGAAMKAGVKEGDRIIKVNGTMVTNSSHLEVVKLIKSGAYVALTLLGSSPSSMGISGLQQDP

T3: DFNB31_1, Q9P202
T3 sequence (Q9P202 135-233, limits assumed, looked up): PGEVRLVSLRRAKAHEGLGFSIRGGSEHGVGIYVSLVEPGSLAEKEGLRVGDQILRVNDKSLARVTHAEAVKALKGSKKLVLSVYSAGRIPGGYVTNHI

T4: DFNB31_3, Q9P202
T4 sequence (Q9P202 811-907, limits assumed, looked up): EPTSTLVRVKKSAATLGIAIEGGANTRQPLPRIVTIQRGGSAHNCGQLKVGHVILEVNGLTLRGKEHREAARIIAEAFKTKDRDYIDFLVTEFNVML

T5: DLG3_1, Q92796
T5 sequence (Q92796 125-227, limits assumed, looked up): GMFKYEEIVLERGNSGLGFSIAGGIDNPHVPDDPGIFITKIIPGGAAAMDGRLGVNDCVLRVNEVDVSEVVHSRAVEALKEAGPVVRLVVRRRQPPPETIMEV

T6: LIN7C, Q9NUP9
T6 sequence (Q9NUP9 88-185, limits assumed, looked up): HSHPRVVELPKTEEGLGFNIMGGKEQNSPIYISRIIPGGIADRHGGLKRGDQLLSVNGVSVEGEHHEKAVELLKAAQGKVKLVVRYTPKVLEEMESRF

T7: LRRC7, Q96NW7
T7 sequence (Q96NW7 1440-1537, limits assumed, looked up): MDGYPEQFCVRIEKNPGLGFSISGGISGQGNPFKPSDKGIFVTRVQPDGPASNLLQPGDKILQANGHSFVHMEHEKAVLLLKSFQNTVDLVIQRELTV

T8: MPDZ_12, O75970
T8 sequence (O75970 1857-1958, limits assumed, looked up): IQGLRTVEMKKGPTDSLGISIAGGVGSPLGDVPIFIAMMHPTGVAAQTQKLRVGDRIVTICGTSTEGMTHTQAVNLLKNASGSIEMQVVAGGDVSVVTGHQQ

T9: NHERF3_4, Q5T2W1
T9 sequence (Q5T2W1 373-468, limits assumed, looked up): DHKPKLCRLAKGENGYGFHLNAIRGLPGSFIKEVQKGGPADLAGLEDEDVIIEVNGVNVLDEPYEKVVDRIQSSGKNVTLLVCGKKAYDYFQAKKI

T10: PDZRN3_1, Q9UPQ7
T10 sequence (Q9UPQ7 244-349, limits assumed, looked up): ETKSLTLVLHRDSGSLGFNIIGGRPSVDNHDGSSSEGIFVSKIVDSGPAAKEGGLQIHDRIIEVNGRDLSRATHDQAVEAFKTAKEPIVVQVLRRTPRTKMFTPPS

T11: PTPN13_1, Q12923
T11 sequence (Q12923 1088-1188, limits assumed, looked up): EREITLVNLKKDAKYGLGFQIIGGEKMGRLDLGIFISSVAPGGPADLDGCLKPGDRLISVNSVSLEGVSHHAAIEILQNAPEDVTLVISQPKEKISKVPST

T12: TIAM2, Q8IVF5
T12 sequence (Q8IVF5 885-986, limits assumed, looked up): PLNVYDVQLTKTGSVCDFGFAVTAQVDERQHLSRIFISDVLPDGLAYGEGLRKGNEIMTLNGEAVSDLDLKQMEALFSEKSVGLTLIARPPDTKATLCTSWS


Assays:
Assay in all cases: holdup assay
Design in all cases: key: below the threshold = too weak to quantify, mostly under pKd 3.1 to 4
Conditions in all cases: plain residues with an end cap or a label only (N-terminal biotin on a linker: ado-ado)
[1] = biological target: AHNAK1, Q09666
[2] = biological target: T1, APBA2_1, Q99767
[3] = biological target: T2, ARHGEF11, O15085
[4] = biological target: T3, DFNB31_1, Q9P202
[5] = biological target: T4, DFNB31_3, Q9P202
[6] = biological target: DLG1_2, Q12959
[7] = biological target: DLG1_3, Q12959
[8] = biological target: T5, DLG3_1, Q92796
[9] = biological target: HTRA2, O43464
[10] = biological target: Inadl_1, Q8NI35
[11] = biological target: Inadl_9, Q8NI35
[12] = biological target: T6, LIN7C, Q9NUP9
[13] = biological target: LNX1_3, Q8TBB1
[14] = biological target: T7, LRRC7, Q96NW7
[15] = biological target: MAGI1_1, Q96QZ7
[16] = biological target: MAGI2_6, Q86UL8
[17] = biological target: MAST2, Q6P0Q8
[18] = biological target: T8, MPDZ_12, O75970
[19] = biological target: NHERF2_2, Q15599
[20] = biological target: T9, NHERF3_4, Q5T2W1
[21] = biological target: NHERF4_2, Q86UT5
[22] = biological target: NHERF4_4, Q86UT5
[23] = biological target: T10, PDZRN3_1, Q9UPQ7
[24] = biological target: T11, PTPN13_1, Q12923
[25] = biological target: T12, TIAM2, Q8IVF5
[26] = biological target: TJP1_3, Q07157
TJP1_3, Q07157, sequence (Q07157 416-512): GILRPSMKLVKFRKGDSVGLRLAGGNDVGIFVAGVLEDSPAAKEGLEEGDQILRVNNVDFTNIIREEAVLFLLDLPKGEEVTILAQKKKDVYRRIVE

NHERF4_2, Q86UT5, sequence (Q86UT5 220-308): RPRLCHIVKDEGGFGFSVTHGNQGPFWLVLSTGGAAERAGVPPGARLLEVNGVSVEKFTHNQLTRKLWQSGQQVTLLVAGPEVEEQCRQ
DLG1_2, Q12959, sequence (Q12959 314-412): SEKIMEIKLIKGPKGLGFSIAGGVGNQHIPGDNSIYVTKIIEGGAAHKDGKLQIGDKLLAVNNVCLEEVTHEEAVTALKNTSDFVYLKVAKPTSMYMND
MAGI2_6, Q86UL8, sequence (Q86UL8 1141-1229): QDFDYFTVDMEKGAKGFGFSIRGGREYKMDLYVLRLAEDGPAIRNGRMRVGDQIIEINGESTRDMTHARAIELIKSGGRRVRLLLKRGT
LNX1_3, Q8TBB1, sequence (Q8TBB1 500-596): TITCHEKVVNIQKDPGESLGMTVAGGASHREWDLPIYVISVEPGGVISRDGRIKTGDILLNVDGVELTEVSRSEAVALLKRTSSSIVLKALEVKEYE
AHNAK1, Q09666, sequence (Q09666 4-100): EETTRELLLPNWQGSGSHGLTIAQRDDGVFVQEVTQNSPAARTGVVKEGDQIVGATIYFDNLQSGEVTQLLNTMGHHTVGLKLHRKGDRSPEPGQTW
HTRA2, O43464, sequence (O43464 355-458): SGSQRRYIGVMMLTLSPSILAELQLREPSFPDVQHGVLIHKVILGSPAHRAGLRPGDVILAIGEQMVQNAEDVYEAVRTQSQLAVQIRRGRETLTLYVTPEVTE
MAGI1_1, Q96QZ7, sequence (Q96QZ7 1-106): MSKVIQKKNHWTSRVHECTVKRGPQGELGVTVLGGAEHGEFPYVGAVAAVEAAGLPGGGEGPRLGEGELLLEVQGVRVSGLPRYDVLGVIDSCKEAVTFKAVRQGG
MAST2, Q6P0Q8, sequence (Q6P0Q8 1099-1202): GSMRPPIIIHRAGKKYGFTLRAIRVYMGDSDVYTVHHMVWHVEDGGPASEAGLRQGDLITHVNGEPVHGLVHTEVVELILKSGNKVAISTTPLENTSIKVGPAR
DLG1_3, Q12959, sequence (Q12959 457-571): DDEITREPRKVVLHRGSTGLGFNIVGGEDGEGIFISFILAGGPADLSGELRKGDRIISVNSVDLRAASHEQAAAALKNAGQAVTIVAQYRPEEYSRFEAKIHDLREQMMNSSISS
NHERF4_4, Q86UT5, sequence (Q86UT5 464-550): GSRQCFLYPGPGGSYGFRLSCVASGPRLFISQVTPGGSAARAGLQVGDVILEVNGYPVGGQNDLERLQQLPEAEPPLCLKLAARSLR
Inadl_9, Q8NI35, sequence (Q8NI35 1530-1615): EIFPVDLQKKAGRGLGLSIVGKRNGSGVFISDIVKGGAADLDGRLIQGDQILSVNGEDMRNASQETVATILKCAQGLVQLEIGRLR
NHERF2_2, Q15599, sequence (Q15599 142-238): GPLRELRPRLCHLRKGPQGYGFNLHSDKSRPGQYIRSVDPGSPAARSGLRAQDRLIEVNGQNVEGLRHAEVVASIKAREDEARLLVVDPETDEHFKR
Inadl_1, Q8NI35, sequence (Q8NI35 113-229): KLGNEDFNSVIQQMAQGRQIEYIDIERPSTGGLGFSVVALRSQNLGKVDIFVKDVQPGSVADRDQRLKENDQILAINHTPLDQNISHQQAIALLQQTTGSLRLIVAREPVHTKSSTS

pKd [1] | pKd [2] | pKd [3] | pKd [4] | pKd [5] | pKd [6] | pKd [7] | pKd [8] | pKd [9] | pKd [10] | pKd [11] | pKd [12] | pKd [13] | pKd [14] | pKd [15] | pKd [16] | pKd [17] | pKd [18] | pKd [19] | pKd [20] | Binder | also measured
3.51 | below the threshold | below the threshold | 4.28 | 3.75 | 4.68 | below the threshold | 3.97 | 4.05 | below the threshold | 3.72 | 3.94 | below the threshold | 4.97 | below the threshold | 5.4 | 4.09 | 4.69 | below the threshold | below the threshold | QYPGSPDSWV [PKP4, Q99569] | pKd [21]: below the threshold; pKd [22]: below the threshold; pKd [23]: 3.77; pKd [24]: below the threshold; pKd [25]: below the threshold; pKd [26]: 3.68
below the threshold | below the threshold | 3.79 | 3.5 | 3.82 | below the threshold | below the threshold | below the threshold | below the threshold | below the threshold | below the threshold | below the threshold | below the threshold | below the threshold | below the threshold | below the threshold | 4.56 | below the threshold | 4.34 | below the threshold | LGHTPFVDEL [UQCRC2, P22695] | pKd [21]: below the threshold; pKd [22]: below the threshold; pKd [23]: below the threshold; pKd [24]: below the threshold; pKd [25]: below the threshold; pKd [26]: below the threshold
below the threshold | below the threshold | below the threshold | below the threshold | below the threshold | below the threshold | below the threshold | below the threshold | below the threshold | below the threshold | below the threshold | below the threshold | below the threshold | below the threshold | below the threshold | below the threshold | 4.21 | below the threshold | 3.94 | below the threshold | GQETPLNTFC [MAP7D2, Q96T17] | pKd [21]: below the threshold; pKd [22]: below the threshold; pKd [23]: below the threshold; pKd [24]: below the threshold; pKd [25]: 3.62; pKd [26]: below the threshold

Further lines, the binder ahead of its results:

Binder | pKd [1] | pKd [2] | pKd [3] | pKd [4] | pKd [5] | pKd [6] | pKd [7] | pKd [8] | pKd [9] | pKd [10] | pKd [11] | pKd [12] | pKd [13] | pKd [14] | pKd [15] | pKd [16] | pKd [17] | pKd [18] | pKd [19] | pKd [20] | also measured
DFRHKSSFVI [JAM3, Q9BX67] | below the threshold | below the threshold | below the threshold | below the threshold | 3.86 | below the threshold | below the threshold | below the threshold | below the threshold | below the threshold | below the threshold | 3.93 | below the threshold | below the threshold | below the threshold | below the threshold | 3.76 | 3.49 | below the threshold | below the threshold | pKd [21]: below the threshold; pKd [22]: below the threshold; pKd [23]: below the threshold; pKd [24]: below the threshold; pKd [25]: 4.02; pKd [26]: below the threshold
YPKQMPLSQV [FZD8, Q9H461] | below the threshold | below the threshold | 3.89 | 3.59 | below the threshold | below the threshold | 3.64 | below the threshold | below the threshold | below the threshold | below the threshold | below the threshold | below the threshold | below the threshold | below the threshold | below the threshold | 4.29 | below the threshold | below the threshold | below the threshold | pKd [21]: below the threshold; pKd [22]: below the threshold; pKd [23]: below the threshold; pKd [24]: below the threshold; pKd [25]: below the threshold; pKd [26]: below the threshold
